B1: 30-5mZ / 30-5mC-down (dsDNA)
DNA 1: CAGCATTATCACAGCGTTTACACAATAACC
DNA 2: GGTTATTGTGTAAACGCTGTGATAATGCTG
modifications: 5-methyl-2-pyrimidinone (5-methylzebularine) at position 15 of strand 1 (written C); 5mC at position 15 of strand 2
B2: 30-dhaC / 30-5mC-down (dsDNA)
DNA 1: CAGCATTATCACAGCGTTTACACAATAACC
DNA 2: GGTTATTGTGTAAACGCTGTGATAATGCTG
modifications: 5,6-dihydro-5-azacytosine at position 15 of strand 1 (written C); 5mC at position 15 of strand 2

Biological target: M.MpeI (called wild type) (Mycoplasma penetrans? (printed "M. …, UniProt Q8EVR5 1-395, Q68R;K71R;S295P))
Assay: EMSA; 80 uM SAM, 1 mM DTT, 10 mM MgCl2; non-covalent complex among the most abundant; EMSA: 10 mM Tris-HCl pH 7.9, 50 mM NaCl, 10 mM MgCl2, 1 mM DTT, 80 uM SAM, 37 C 1 h, 1 uM DNA, 0.5-4 uM protein; covalent SDS-PAGE: 10 mM Tris-HCl pH 7.9, 50 mM NaCl, 160 uM SAM or sinefungin, +/-10 mM DTT, 37 C
Conditions: protein: recombinant; tags: C-terminal LEHHHHHH; label: 5' Cy3 or 5' 32P on strand 2; blunt

Row | Binder | binding result
1 | B1 | binds
2 | B2 | binds
